Test results reported in the supplement of paper PMC10126150.
± gives the standard deviation of the averaged measurements.

Tested on: ATP
Assay: switch fluorescence ratio, 500 uM ATP over buffer (Cy3 cluster intensity, sum of 5 cycles each) (fold (ratio)); higher = stronger signal-on switching upon ATP binding; sequences stand for … in TCGTCGGCAGCGTCAGATGTGTATAAGAGACAGTTTTTTTTTTTTTTTTTTTTTTTTT…TC
Details: aptamer strand: ATP DNA aptamer (quencher-CACCTGGGGGAGTATTGCGGAGGAAGG + anchor), 100 nM annealed; ATP concentration: 500 uM
How it was run: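 Switching-strand clusters labelled with Cy3 on a modified Illumina MiSeq flow-cell were annealed to 100 nM quencher-labelled ATP aptamer, imaged in selection buffer, and re-imaged after 15 min with 500 uM ATP at 22 °C. This was done over five cycles with NaOH stripping and re-annealing in between. The fluorescence ratio is summed target-cycle over summed buffer-cycle Cy3 intensity per cluster, averaged per switch-domain sequence, excluding clusters outside 100-1000 RFU.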
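Note: ATP exposure 15 min at 22 °C before imaging.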

| Sequence | switch fluorescence ratio |
| --- | --- |
| GCGAAAGTTG | 1.014 ± 0.0032 |
| GCGAAATGTG | 1.03 ± 0.013 |
| GCGAAGGCTT | 1.017 ± 0.0095 |
| GCGAAGGGGG | 1.03 ± 0.067 |
| GCGACATCGT | 1.027 ± 0.0091 |
| GCGACCGTGT | 0.9908 ± 0.0014 |
| GCGACGAGGG | 1.033 ± 0.0017 |
| GCGACGGGAA | 1.34 ± 0.09 |
| GCGACGGGT | 1.02 ± 0.06 |
| GCGACTGCGG | 0.982 ± 0.021 |
| GCGAGAGGGA | 1.01 ± 0.013 |
| GCGAGATGCG | 0.972 ± 0.032 |
| GCGAGGAATC | 1.0365 ± 0.00015 |
| GCGAGGGATT | 1.02 ± 0.032 |
| GCGAGGGGGG | 1.02 ± 0.034 |
| GCGAGTATGC | 1.03 ± 0.02 |
| GCGAGTGTCC | 0.99 ± 0.019 |
| GCGAGTGTGT | 0.984 ± 0.029 |
| GCGAGTTATG | 1.03 ± 0.031 |
| GCGATATAGT | 1.03 ± 0.074 |
| GCGATATATG | 0.9775 ± 0.0032 |
| GCGATCAGGT | 1.02 ± 0.017 |
| GCGATCCAAA | 1 ± 0.037 |
| GCGATCCTGT | 1.02 ± 0.015 |
| GCGATGCCTG | 0.973 ± 0.071 |
| GCGATGGATA | 0.96 ± 0.056 |

| Sequence | switch fluorescence ratio |
| --- | --- |
| GCGATGTGAC | 1.22 ± 0.059 |
| GCGATGTGGT | 1.01 ± 0.012 |
| GCGATTGAGG | 0.9891 ± 0.005 |
| GCGATTGGGT | 1.01 ± 0.043 |
| GCGCAGTCGG | 1.034 ± 0.0048 |
| GCGCATTGGT | 1.06 ± 0.068 |
| GCGCGCCGGG | 1.01 ± 0.027 |
| GCGCGCTAAG | 0.977 ± 0.035 |
| GCGCTAAGTT | 0.984 ± 0.015 |
| GCGCTACTAG | 1.02 ± 0.021 |
| GCGCTAGGCT | 1.01 ± 0.08 |
| GCGCTATCTT | 1.06 ± 0.041 |
| GCGCTCGTCG | 1.07 ± 0.012 |
| GCGCTGACGT | 0.9932 ± 0.0052 |
| GCGCTTAGGT | 0.983 ± 0.077 |
| GCGCTTGAAT | 0.982 ± 0.018 |
| GCGCTTTTGG | 0.986 ± 0.048 |
| GCGGAAGACG | 1.35 ± 0.6 |
| GCGGACACGC | 1.02 ± 0.014 |
| GCGGAGCGTA | 1.06 ± 0.13 |
| GCGGAGTATT | 1.02 ± 0.012 |
| GCGGATGGTG | 1.07 ± 0.08 |
| GCGGATGTCT | 1 ± 0.017 |
| GCGGCATAAT | 1.02 ± 0.026 |
| GCGGCGTCAA | 1.064 ± 0.0067 |
| GCGGCTAGTC | 1.012 ± 0.0064 |

| Sequence | switch fluorescence ratio |
| --- | --- |
| GCGGCTGAAA | 1 ± 0.022 |
| GCGGCTGTGG | 0.9861 ± 0.008 |
| GCGGCTGTTA | 1.01 ± 0.013 |
| GCGGCTTCGG | 1.04 ± 0.032 |
| GCGGCTTGTG | 0.9988 ± 0.0089 |
| GCGGGAAACT | 1.05 ± 0.032 |
| GCGGGAATGG | 1.02 ± 0.0037 |
| GCGGGAGATA | 1.01 ± 0.037 |
| GCGGGCAATG | 1.052 ± 0.0089 |
| GCGGGCAGGC | 0.99818 ± 0.00079 |
| GCGGGCGGCG | 0.974 ± 0.03 |
| GCGGGGA | 0.998 ± 0.015 |
| GCGGGGACTT | 0.984 ± 0.038 |
| GCGGGGCAAG | 1.06 ± 0.11 |
| GCGGGGGGGC | 1.01 ± 0.017 |
| GCGGGGGGTA | 1.01 ± 0.03 |
| GCGGGGGGTC | 1.06 ± 0.091 |
| GCGGGGGGTG | 1.01 ± 0.03 |
| GCGGGGGTCC | 1.17 ± 0.31 |
| GCGGGGTTGG | 1.01 ± 0.035 |
| GCGGGGTTTG | 1.01 ± 0.015 |
| GCGGGTATGT | 1.04 ± 0.023 |
| GCGGGTCACC | 0.992 ± 0.01 |
| GCGGGTCTGC | 0.963 ± 0.028 |
| GCGGTATATG | 1.01 ± 0.027 |
| GCGGTCCACG | 1.02 ± 0.022 |

| Sequence | switch fluorescence ratio |
| --- | --- |
| GCGGTGGATG | 1.03 ± 0.012 |
| GCGGTGGGGT | 1.01 ± 0.018 |
| GCGGTTTTGT | 0.998 ± 0.029 |
| GCGTAACTTC | 1.01 ± 0.044 |
| GCGTAAGGCC | 1.14 ± 0.21 |
| GCGTAAGTTC | 0.981 ± 0.011 |
| GCGTAATCTT | 0.988 ± 0.035 |
| GCGTATGGAC | 1.01 ± 0.02 |
| GCGTATTATT | 1.001 ± 0.0043 |
| GCGTATTGCT | 0.993 ± 0.016 |
| GCGTCAACTG | 1.04 ± 0.023 |
| GCGTCAAGAT | 1.04 ± 0.042 |
| GCGTCAAGTG | 0.988 ± 0.026 |
| GCGTCGGGCA | 0.997 ± 0.027 |
| GCGTCGGGTG | 1.019 ± 0.008 |
| GCGTCTAAGG | 0.981 ± 0.021 |
| GCGTCTGCGC | 0.943 ± 0.085 |
| GCGTGAGGCG | 1.01 ± 0.02 |
| GCGTGAGGGG | 1.03 ± 0.05 |
| GCGTGATGCC | 1.03 ± 0.075 |
| GCGTGCCTCG | 1.02 ± 0.036 |
| GCGTGGTCAG | 0.97027 ± 0.00034 |
| GCGTGTGAGC | 1 ± 0.012 |
| GCGTTATATT | 1 ± 0.018 |
| GCGTTATGTG | 1.017 ± 0.01 |
| GCGTTATTTT | 1.012 ± 0.0076 |

| Sequence | switch fluorescence ratio |
| --- | --- |
| GCGTTCCGTA | 1.02 ± 0.039 |
| GCGTTGGGAC | 1.042 ± 0.0036 |
| GCGTTGTCTG | 0.982 ± 0.068 |
| GCGTTGTGGA | 1.04 ± 0.02 |
| GCGTTGTTCG | 0.99 ± 0.044 |
| GCGTTTAAGA | 1.04 ± 0.021 |
| GCGTTTAATG | 0.977 ± 0.047 |
| GCGTTTAATT | 1.02 ± 0.03 |
| GCGTTTGTGC | 1.007 ± 0.01 |
| GCGTTTTATT | 0.976 ± 0.017 |
| GCGTTTTGGG | 0.979 ± 0.041 |
| GCTAAAACAG | 0.985 ± 0.026 |
| GCTAAAAGCT | 1.02 ± 0.011 |
| GCTAAAATAG | 1.11 ± 0.15 |
| GCTAAAGAAA | 0.974 ± 0.028 |
| GCTAACATTT | 0.974 ± 0.029 |
| GCTAACCGTA | 1.04 ± 0.023 |
| GCTAATTTTT | 0.996 ± 0.018 |
| GCTACAGGGG | 1.18 ± 0.25 |
| GCTACCATAT | 1.07 ± 0.015 |
| GCTACGATGT | 1.01 ± 0.049 |
| GCTACGGGGG | 1.02 ± 0.037 |
| GCTACGTGTT | 1.053 ± 0.007 |
| GCTACTGGCA | 1.003 ± 0.0077 |
| GCTACTTAAA | 1.03 ± 0.025 |
| GCTAGGCGGA | 1.0381 ± 0.0006 |

| Sequence | switch fluorescence ratio |
| --- | --- |
| GCTAGGGGAA | 0.985 ± 0.031 |
| GCTAGGGGTA | 0.987 ± 0.012 |
| GCTAGTATAA | 0.987 ± 0.027 |
| GCTAGTCTGA | 0.9954 ± 0.0019 |
| GCTATAGAGG | 0.9846 ± 0.0072 |
| GCTATAGCGT | 0.9958 ± 0.0063 |
| GCTATTCGAA | 1.01 ± 0.061 |
| GCTATTCGAC | 1.16 ± 0.022 |
| GCTATTGAAA | 0.9922 ± 0.0018 |
| GCTATTGGAT | 1.01 ± 0.02 |
| GCTATTTACT | 1.06 ± 0.076 |
| GCTCAAGGAG | 0.9951 ± 0.0066 |
| GCTCACAGAA | 1.02 ± 0.019 |
| GCTCATGAAT | 1 ± 0.023 |
| GCTCGGGGGG | 0.987 ± 0.031 |
| GCTCGGGGTA | 1.02 ± 0.013 |
| GCTCGTAGTG | 1 ± 0.047 |
| GCTCGTAGTT | 1.01 ± 0.046 |
| GCTCTAATTG | 1.008 ± 0.0058 |
| GCTCTACTGG | 1.024 ± 0.0021 |
| GCTCTAGATC | 1.35 ± 0.07 |
| GCTCTAGTTT | 1.02 ± 0.027 |
| GCTCTATGGT | 1.006 ± 0.0078 |
